Results: patent publication US20140087995A1 (published 2014)
One block for each binder: values may come before it. Numbered stars: 1 amine (or outer) side, 2 acyl side, 3 side chain; on linkers, the order of the positions; unused ones are H or OH. Bridge positions count the residues as written; N and C are the ends. Side chains are listed from the residue outwards. Ends that are not written are not given here. * marks the point of attachment. C20 diacid = O=C(O)CCCCCCCCCCCCCCCCCCC(=O)*; γGlu = O=C(O)[C@H](CCC(=O)[*:2])N[*:1]; AEEA = NCCOCCOCC(=O)O

Tests used:
[1] = molecular target: T1, human amylin receptor (amylin 3(a) receptor: human calcitonin receptor co-expressed with RAMP-3) (human, UniProt P30988 25-474; O60896 24-148, limits assumed); experiment: cell-based or functional assay
T1 sequence (looked up) 1: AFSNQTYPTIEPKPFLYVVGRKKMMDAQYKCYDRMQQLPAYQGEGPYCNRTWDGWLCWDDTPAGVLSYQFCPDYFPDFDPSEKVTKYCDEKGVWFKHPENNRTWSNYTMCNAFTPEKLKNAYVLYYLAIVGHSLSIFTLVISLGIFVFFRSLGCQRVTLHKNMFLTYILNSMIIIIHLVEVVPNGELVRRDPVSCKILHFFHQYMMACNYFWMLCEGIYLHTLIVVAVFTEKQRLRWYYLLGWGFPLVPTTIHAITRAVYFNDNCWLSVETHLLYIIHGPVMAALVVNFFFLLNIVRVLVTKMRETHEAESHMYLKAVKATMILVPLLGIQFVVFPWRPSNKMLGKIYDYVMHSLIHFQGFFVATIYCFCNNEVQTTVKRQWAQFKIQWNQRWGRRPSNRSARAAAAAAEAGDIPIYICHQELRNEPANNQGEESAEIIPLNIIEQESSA
T1 sequence (looked up) 2: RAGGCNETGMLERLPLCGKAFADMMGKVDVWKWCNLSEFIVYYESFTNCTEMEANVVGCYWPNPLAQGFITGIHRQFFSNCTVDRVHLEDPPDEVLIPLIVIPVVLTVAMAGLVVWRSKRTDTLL

[2] = molecular target: T2, human calcitonin receptor (human, UniProt P30988 25-474); experiment: cell-based or functional assay
T2 sequence (looked up): T1 sequence (looked up) 1

B1: N^ε1-[2-[2-[2-[[(4S)-4-carboxy-4-(19-carboxynonadecanoylamino)butanoyl]amino]ethoxy]ethoxy]acetyl]-[His14,Arg17,Pro21,Pro27,His34]-h-amylin (peptide)
peptide: K([AEEA-γGlu-C20 diacid])CNTATCATQRLAHFLRHSSPNFGAIPSSTNVGHNTY-NH2
modifications: disulfide 2-7; N-terminus assumed
SMILES: CC[C@H](C)[C@H](NC(=O)[C@H](C)NC(=O)CNC(=O)[C@H](Cc1ccccc1)NC(=O)[C@H](CC(N)=O)NC(=O)[C@@H]1CCCN1C(=O)[C@H](CO)NC(=O)[C@H](CO)NC(=O)[C@H](Cc1c[nH]cn1)NC(=O)[C@H](CCCNC(=N)N)NC(=O)[C@H](CC(C)C)NC(=O)[C@H](Cc1ccccc1)NC(=O)[C@H](Cc1c[nH]cn1)NC(=O)[C@H](C)NC(=O)[C@H](CC(C)C)NC(=O)[C@H](CCCNC(=N)N)NC(=O)[C@H](CCC(N)=O)NC(=O)[C@@H](NC(=O)[C@H](C)NC(=O)[C@@H]1CSSC[C@H](NC(=O)[C@@H](N)CCCCNC(=O)COCCOCCNC(=O)CC[C@H](NC(=O)CCCCCCCCCCCCCCCCCCC(=O)O)C(=O)O)C(=O)N[C@@H](CC(N)=O)C(=O)N[C@@H]([C@@H](C)O)C(=O)N[C@@H](C)C(=O)N[C@@H]([C@@H](C)O)C(=O)N1)[C@@H](C)O)C(=O)N1CCC[C@H]1C(=O)N[C@@H](CO)C(=O)N[C@@H](CO)C(=O)N[C@H](C(=O)N[C@@H](CC(N)=O)C(=O)N[C@H](C(=O)NCC(=O)N[C@@H](Cc1c[nH]cn1)C(=O)N[C@@H](CC(N)=O)C(=O)N[C@H](C(=O)N[C@@H](Cc1ccc(O)cc1)C(N)=O)[C@@H](C)O)C(C)C)[C@@H](C)O
notes: also called compound 80
hAmylin-R funct. EC50 [1]: 0.139 nM
hCTR funct. EC50 [2]: 2.14 nM

B4: N^ε1-[2-[2-[2-[[(4S)-4-carboxy-4-(19-carboxynonadecanoylamino)butanoyl]amino]ethoxy]ethoxy]acetyl]-[Thr14,Arg17,Pro21,Pro27,Pro31]-h-amylin (peptide)
peptide: K([AEEA-γGlu-C20 diacid])CNTATCATQRLATFLRHSSPNFGAIPSSTPVGSNTY-NH2
modifications: disulfide 2-7; N-terminus assumed
SMILES: CC[C@H](C)[C@H](NC(=O)[C@H](C)NC(=O)CNC(=O)[C@H](Cc1ccccc1)NC(=O)[C@H](CC(N)=O)NC(=O)[C@@H]1CCCN1C(=O)[C@H](CO)NC(=O)[C@H](CO)NC(=O)[C@H](Cc1c[nH]cn1)NC(=O)[C@H](CCCNC(=N)N)NC(=O)[C@H](CC(C)C)NC(=O)[C@H](Cc1ccccc1)NC(=O)[C@@H](NC(=O)[C@H](C)NC(=O)[C@H](CC(C)C)NC(=O)[C@H](CCCNC(=N)N)NC(=O)[C@H](CCC(N)=O)NC(=O)[C@@H](NC(=O)[C@H](C)NC(=O)[C@@H]1CSSC[C@H](NC(=O)[C@@H](N)CCCCNC(=O)COCCOCCNC(=O)CC[C@H](NC(=O)CCCCCCCCCCCCCCCCCCC(=O)O)C(=O)O)C(=O)N[C@@H](CC(N)=O)C(=O)N[C@@H]([C@@H](C)O)C(=O)N[C@@H](C)C(=O)N[C@@H]([C@@H](C)O)C(=O)N1)[C@@H](C)O)[C@@H](C)O)C(=O)N1CCC[C@H]1C(=O)N[C@@H](CO)C(=O)N[C@@H](CO)C(=O)N[C@H](C(=O)N1CCC[C@H]1C(=O)N[C@H](C(=O)NCC(=O)N[C@@H](CO)C(=O)N[C@@H](CC(N)=O)C(=O)N[C@H](C(=O)N[C@@H](Cc1ccc(O)cc1)C(N)=O)[C@@H](C)O)C(C)C)[C@@H](C)O
notes: also called compound 75
hAmylin-R funct. EC50 [1]: 0.296 nM
hCTR funct. EC50 [2]: 9.07 nM

B5: N^ε1-[2-[2-[2-[[(4S)-4-carboxy-4-(19-carboxynonadecanoylamino)butanoyl]amino]ethoxy]ethoxy]acetyl]-[Lys14,Arg17,Pro21,Pro27,Pro31]-h-amylin (peptide)
peptide: K([AEEA-γGlu-C20 diacid])CNTATCATQRLAKFLRHSSPNFGAIPSSTPVGSNTY-NH2
modifications: disulfide 2-7; N-terminus assumed
SMILES: CC[C@H](C)[C@H](NC(=O)[C@H](C)NC(=O)CNC(=O)[C@H](Cc1ccccc1)NC(=O)[C@H](CC(N)=O)NC(=O)[C@@H]1CCCN1C(=O)[C@H](CO)NC(=O)[C@H](CO)NC(=O)[C@H](Cc1c[nH]cn1)NC(=O)[C@H](CCCNC(=N)N)NC(=O)[C@H](CC(C)C)NC(=O)[C@H](Cc1ccccc1)NC(=O)[C@H](CCCCN)NC(=O)[C@H](C)NC(=O)[C@H](CC(C)C)NC(=O)[C@H](CCCNC(=N)N)NC(=O)[C@H](CCC(N)=O)NC(=O)[C@@H](NC(=O)[C@H](C)NC(=O)[C@@H]1CSSC[C@H](NC(=O)[C@@H](N)CCCCNC(=O)COCCOCCNC(=O)CC[C@H](NC(=O)CCCCCCCCCCCCCCCCCCC(=O)O)C(=O)O)C(=O)N[C@@H](CC(N)=O)C(=O)N[C@@H]([C@@H](C)O)C(=O)N[C@@H](C)C(=O)N[C@@H]([C@@H](C)O)C(=O)N1)[C@@H](C)O)C(=O)N1CCC[C@H]1C(=O)N[C@@H](CO)C(=O)N[C@@H](CO)C(=O)N[C@H](C(=O)N1CCC[C@H]1C(=O)N[C@H](C(=O)NCC(=O)N[C@@H](CO)C(=O)N[C@@H](CC(N)=O)C(=O)N[C@H](C(=O)N[C@@H](Cc1ccc(O)cc1)C(N)=O)[C@@H](C)O)C(C)C)[C@@H](C)O
notes: also called compound 74
hAmylin-R funct. EC50 [1]: 0.666 nM
hCTR funct. EC50 [2]: 37.5 nM

B6: N^ε1-[2-[2-[2-[[(4S)-4-carboxy-4-(19-carboxynonadecanoylamino)butanoyl]amino]ethoxy]ethoxy]acetyl]-[Ser14,Arg17,Pro21,Pro27,Pro31]-h-amylin (peptide)
peptide: K([AEEA-γGlu-C20 diacid])CNTATCATQRLASFLRHSSPNFGAIPSSTPVGSNTY-NH2
modifications: disulfide 2-7; N-terminus assumed
SMILES: CC[C@H](C)[C@H](NC(=O)[C@H](C)NC(=O)CNC(=O)[C@H](Cc1ccccc1)NC(=O)[C@H](CC(N)=O)NC(=O)[C@@H]1CCCN1C(=O)[C@H](CO)NC(=O)[C@H](CO)NC(=O)[C@H](Cc1c[nH]cn1)NC(=O)[C@H](CCCNC(=N)N)NC(=O)[C@H](CC(C)C)NC(=O)[C@H](Cc1ccccc1)NC(=O)[C@H](CO)NC(=O)[C@H](C)NC(=O)[C@H](CC(C)C)NC(=O)[C@H](CCCNC(=N)N)NC(=O)[C@H](CCC(N)=O)NC(=O)[C@@H](NC(=O)[C@H](C)NC(=O)[C@@H]1CSSC[C@H](NC(=O)[C@@H](N)CCCCNC(=O)COCCOCCNC(=O)CC[C@H](NC(=O)CCCCCCCCCCCCCCCCCCC(=O)O)C(=O)O)C(=O)N[C@@H](CC(N)=O)C(=O)N[C@@H]([C@@H](C)O)C(=O)N[C@@H](C)C(=O)N[C@@H]([C@@H](C)O)C(=O)N1)[C@@H](C)O)C(=O)N1CCC[C@H]1C(=O)N[C@@H](CO)C(=O)N[C@@H](CO)C(=O)N[C@H](C(=O)N1CCC[C@H]1C(=O)N[C@H](C(=O)NCC(=O)N[C@@H](CO)C(=O)N[C@@H](CC(N)=O)C(=O)N[C@H](C(=O)N[C@@H](Cc1ccc(O)cc1)C(N)=O)[C@@H](C)O)C(C)C)[C@@H](C)O
notes: also called compound 73
hAmylin-R funct. EC50 [1]: 0.085 nM
hCTR funct. EC50 [2]: 0.961 nM

Continued, values first:

hAmylin-R funct. EC50 [1]: 0.054 nM
hCTR funct. EC50 [2]: 0.932 nM
B2: N^ε1-[2-[2-[2-[[(4S)-4-carboxy-4-(19-carboxynonadecanoylamino)butanoyl]amino]ethoxy]ethoxy]acetyl]-[His14,Arg17,Pro21,Pro27,Pro34]-h-amylin (peptide)
peptide: K([AEEA-γGlu-C20 diacid])CNTATCATQRLAHFLRHSSPNFGAIPSSTNVGPNTY-NH2
modifications: disulfide 2-7; N-terminus assumed
SMILES: CC[C@H](C)[C@H](NC(=O)[C@H](C)NC(=O)CNC(=O)[C@H](Cc1ccccc1)NC(=O)[C@H](CC(N)=O)NC(=O)[C@@H]1CCCN1C(=O)[C@H](CO)NC(=O)[C@H](CO)NC(=O)[C@H](Cc1c[nH]cn1)NC(=O)[C@H](CCCNC(=N)N)NC(=O)[C@H](CC(C)C)NC(=O)[C@H](Cc1ccccc1)NC(=O)[C@H](Cc1c[nH]cn1)NC(=O)[C@H](C)NC(=O)[C@H](CC(C)C)NC(=O)[C@H](CCCNC(=N)N)NC(=O)[C@H](CCC(N)=O)NC(=O)[C@@H](NC(=O)[C@H](C)NC(=O)[C@@H]1CSSC[C@H](NC(=O)[C@@H](N)CCCCNC(=O)COCCOCCNC(=O)CC[C@H](NC(=O)CCCCCCCCCCCCCCCCCCC(=O)O)C(=O)O)C(=O)N[C@@H](CC(N)=O)C(=O)N[C@@H]([C@@H](C)O)C(=O)N[C@@H](C)C(=O)N[C@@H]([C@@H](C)O)C(=O)N1)[C@@H](C)O)C(=O)N1CCC[C@H]1C(=O)N[C@@H](CO)C(=O)N[C@@H](CO)C(=O)N[C@H](C(=O)N[C@@H](CC(N)=O)C(=O)N[C@H](C(=O)NCC(=O)N1CCC[C@H]1C(=O)N[C@@H](CC(N)=O)C(=O)N[C@H](C(=O)N[C@@H](Cc1ccc(O)cc1)C(N)=O)[C@@H](C)O)C(C)C)[C@@H](C)O
notes: also called compound 68

hAmylin-R funct. EC50 [1]: 0.051 nM
hCTR funct. EC50 [2]: 0.554 nM
B3: N^ε1-[2-[2-[2-[[(4S)-4-carboxy-4-(19-carboxynonadecanoylamino)butanoyl]amino]ethoxy]ethoxy]acetyl]-[His14,Arg17,Pro21,Pro27,Pro31]-h-amylin (peptide)
peptide: K([AEEA-γGlu-C20 diacid])CNTATCATQRLAHFLRHSSPNFGAIPSSTPVGSNTY-NH2
modifications: disulfide 2-7; N-terminus assumed
SMILES: CC[C@H](C)[C@H](NC(=O)[C@H](C)NC(=O)CNC(=O)[C@H](Cc1ccccc1)NC(=O)[C@H](CC(N)=O)NC(=O)[C@@H]1CCCN1C(=O)[C@H](CO)NC(=O)[C@H](CO)NC(=O)[C@H](Cc1c[nH]cn1)NC(=O)[C@H](CCCNC(=N)N)NC(=O)[C@H](CC(C)C)NC(=O)[C@H](Cc1ccccc1)NC(=O)[C@H](Cc1c[nH]cn1)NC(=O)[C@H](C)NC(=O)[C@H](CC(C)C)NC(=O)[C@H](CCCNC(=N)N)NC(=O)[C@H](CCC(N)=O)NC(=O)[C@@H](NC(=O)[C@H](C)NC(=O)[C@@H]1CSSC[C@H](NC(=O)[C@@H](N)CCCCNC(=O)COCCOCCNC(=O)CC[C@H](NC(=O)CCCCCCCCCCCCCCCCCCC(=O)O)C(=O)O)C(=O)N[C@@H](CC(N)=O)C(=O)N[C@@H]([C@@H](C)O)C(=O)N[C@@H](C)C(=O)N[C@@H]([C@@H](C)O)C(=O)N1)[C@@H](C)O)C(=O)N1CCC[C@H]1C(=O)N[C@@H](CO)C(=O)N[C@@H](CO)C(=O)N[C@H](C(=O)N1CCC[C@H]1C(=O)N[C@H](C(=O)NCC(=O)N[C@@H](CO)C(=O)N[C@@H](CC(N)=O)C(=O)N[C@H](C(=O)N[C@@H](Cc1ccc(O)cc1)C(N)=O)[C@@H](C)O)C(C)C)[C@@H](C)O
notes: also called compound 61
